Assay [1] deals with tuftsin receptor (human). Kind of assay: competition with 99mTc-labeled peptide on HL-60 cells.
Assay [2] deals with tuftsin receptor (human). As to the kind of experiment: competition with trace 99mTc-labeled peptide on formalin-fixed human PMN leukocytes.
Assay [3] has as its target GP IIb/IIIa platelet receptor (integrin heterodimeric glycoprotein IIb/IIIa) (human) (UniProt P08514). Kind of assay: competition with trace 99mTc-labeled peptide on activated formalin-fixed human platelets.
Sequence of UniProt P08514 (P08514 32-1039, chain 1 of 2): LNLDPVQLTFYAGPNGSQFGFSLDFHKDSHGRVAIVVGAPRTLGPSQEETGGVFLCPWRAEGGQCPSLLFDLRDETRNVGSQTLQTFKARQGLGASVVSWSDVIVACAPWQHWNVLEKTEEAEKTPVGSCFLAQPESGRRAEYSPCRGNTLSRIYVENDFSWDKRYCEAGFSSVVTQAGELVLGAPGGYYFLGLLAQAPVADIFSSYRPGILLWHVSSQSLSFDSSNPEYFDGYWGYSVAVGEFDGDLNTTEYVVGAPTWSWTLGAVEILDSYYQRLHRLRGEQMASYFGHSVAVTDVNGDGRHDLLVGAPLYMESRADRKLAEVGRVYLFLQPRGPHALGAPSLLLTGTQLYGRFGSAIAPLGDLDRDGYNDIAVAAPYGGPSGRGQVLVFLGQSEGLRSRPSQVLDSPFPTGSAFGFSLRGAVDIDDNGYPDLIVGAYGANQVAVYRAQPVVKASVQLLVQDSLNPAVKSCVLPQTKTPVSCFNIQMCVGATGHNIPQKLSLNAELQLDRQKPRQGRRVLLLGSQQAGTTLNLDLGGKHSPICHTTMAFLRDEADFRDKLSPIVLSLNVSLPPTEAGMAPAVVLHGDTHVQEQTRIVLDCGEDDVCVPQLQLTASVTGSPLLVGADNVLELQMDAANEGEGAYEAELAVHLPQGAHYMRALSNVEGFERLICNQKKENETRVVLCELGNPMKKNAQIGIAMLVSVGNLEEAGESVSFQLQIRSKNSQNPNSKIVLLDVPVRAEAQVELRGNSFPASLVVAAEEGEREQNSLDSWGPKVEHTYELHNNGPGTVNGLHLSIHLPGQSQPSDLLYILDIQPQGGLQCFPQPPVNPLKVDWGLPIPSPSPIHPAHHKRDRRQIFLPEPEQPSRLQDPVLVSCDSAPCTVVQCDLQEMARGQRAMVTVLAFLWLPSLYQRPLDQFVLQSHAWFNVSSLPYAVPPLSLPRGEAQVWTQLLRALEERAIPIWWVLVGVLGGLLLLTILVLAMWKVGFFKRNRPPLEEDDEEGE
Sequence of UniProt P08514 (P05106 27-788, chain 2 of 2, further chain): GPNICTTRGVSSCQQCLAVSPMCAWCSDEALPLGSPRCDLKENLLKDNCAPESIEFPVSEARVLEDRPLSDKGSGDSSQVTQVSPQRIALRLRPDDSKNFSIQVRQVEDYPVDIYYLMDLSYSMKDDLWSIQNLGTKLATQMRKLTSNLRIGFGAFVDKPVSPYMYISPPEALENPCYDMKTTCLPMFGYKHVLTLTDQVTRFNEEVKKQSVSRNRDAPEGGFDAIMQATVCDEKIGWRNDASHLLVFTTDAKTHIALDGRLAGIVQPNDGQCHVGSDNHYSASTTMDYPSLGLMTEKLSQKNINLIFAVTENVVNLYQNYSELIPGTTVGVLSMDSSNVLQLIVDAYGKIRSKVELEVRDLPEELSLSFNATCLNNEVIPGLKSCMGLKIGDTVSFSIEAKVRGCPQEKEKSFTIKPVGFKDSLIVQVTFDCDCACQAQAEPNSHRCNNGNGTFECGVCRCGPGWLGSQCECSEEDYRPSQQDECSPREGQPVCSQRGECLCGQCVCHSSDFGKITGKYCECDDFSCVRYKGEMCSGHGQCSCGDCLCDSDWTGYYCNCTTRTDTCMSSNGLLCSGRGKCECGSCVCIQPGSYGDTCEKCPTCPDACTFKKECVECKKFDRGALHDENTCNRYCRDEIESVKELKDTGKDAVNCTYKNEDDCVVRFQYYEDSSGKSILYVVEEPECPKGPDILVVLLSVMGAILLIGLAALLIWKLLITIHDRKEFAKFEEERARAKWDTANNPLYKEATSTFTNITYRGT
Assay [4] concerns the target tuftsin receptor (human). As to the kind of experiment: radioligand saturation binding, fresh and formalin-fixed HL-60 cells, filtration.
Assay [5] deals with tuftsin receptor (human). Kind of assay: radioligand saturation binding, fresh and formalin-fixed human PMN leukocytes, filtration.
The target in assay [6] is GP IIb/IIIa platelet receptor (integrin heterodimeric glycoprotein IIb/IIIa) (human) (UniProt P08514). As to the kind of experiment: radioligand saturation binding to fresh human blood clots.
The target is the same in assay [7]. Kind of assay: radioligand saturation binding to human blood clots, carrier-free preparation.
The target is the same in assay [8]. Kind of assay: radioligand saturation binding, ADP-activated formalin-fixed human platelets, filtration.
The target is the same in assay [9]. As to the kind of experiment: radioligand saturation binding, ADP-activated human platelets in platelet rich plasma, filtration.
Assay [10] deals with tuftsin receptor (human). As to the kind of experiment: cell-based or functional assay.
Assay [11] has as its target tuftsin receptor (human). As to the kind of experiment: competition with 99mTc-labeled peptide on HL-60 cells. The source holds these as a separate data set.
Assay [12] deals with tuftsin receptor (human). Kind of assay: binding to human leukocytes.

Where no end group is shown, it is not given here. [ ]: non-standard residue; d: D form.

This is an account of results in patent US20060040324A1.

As usually defined, the IC50 is the concentration that gives 50% inhibition. Low values mean greater potency in that assay, high ones weaker potency in that assay. As usually defined, the Kd is the free concentration of one partner at which half of the binding sites on the other are occupied at equilibrium, for simple one-to-one binding. Low readings indicate a tighter complex, high ones a looser complex.

With “^99Tc-Thr-[D-Lys-Gly-D-Cys]-Arg (peptide)”, the IC50 with tuftsin receptor (human) [1] and with tuftsin receptor (human) [2] was 1 to 5 nM each time.

Molecule ^99Tc-[D-Arg-Gly-D-Cys]-β-Ala (peptide) returned an IC50 in assay [3] of 5 to 10 nM.

Consider “^99mTc-Thr-[D-Lys-Gly-D-Cys]-Arg (peptide)”, for which the Kd with tuftsin receptor (human) [4] and in the assay with tuftsin receptor (human) [5] was 1 to 5 nM in each case.

In the case of “^99mTc-[D-Arg-Gly-D-Cys]-β-Ala (peptide)”, the Kd in [6], in assay [7], in assay [8] and in assay [9] was 5 to 10 nM in each case.

Turning to “^99mTc-labeled PEG8000-D-Arg-Gly-D-Cys-β-Ala (peptide)”, the Kd in [6] is 5 to 20 nM.

Take T[dK]G[dC]R (also: ReO[V] complexed to D-Lys-Gly-D-Cys) [Thr-ReO[V]-[D-Lys-Gly-D-Cys]-Arg]: in the assay with tuftsin receptor (human) [10], the nitroblue tetrazolium dye reduction (hexose monophosphate shunt activity) in human PMN granulocytes: concentration of maximum stimulation is 1 to 5 nM and the stimulation of phagocytosis of heat inactivated yeast cells by human PMN granulocytes: concentration of maximal stimulation came to 1 nM.

On to TKPR [natural tuftsin Thr-Lys-Pro-Arg], for which the nitroblue tetrazolium dye reduction (hexose monophosphate shunt activity) in human PMN granulocytes: concentration of maximal stimulation with tuftsin receptor (human) [10] came to 100 nM. For the same molecule, the IC50 in the assay with tuftsin receptor (human) [11] and in the assay with tuftsin receptor (human) [2] was 100 nM in each case.

Molecule T[dK]G[dC]R [Thr-D-Lys-Gly-D-Cys-Arg (unlabeled, not complexed to a metal ion)] returned an equilibrium dissociation constant (Kd) with tuftsin receptor (human) [12] of 100 µM. The same molecule registered an IC50 with tuftsin receptor (human) [2] of 2000 to 5000 nM.
